Experimental data: paper PMC10523585 (Molecular cell, 2023)

Experiments:
Assay in all cases: cryo-EM structure
[1] = molecular target: Rpt1 (ATPase subunit of the human 26S proteasome) (human, UniProt P35998 1-433)
[2] = molecular target: Rpt5 (ATPase subunit of the human 26S proteasome) (human, UniProt P17980 1-439)
[3] = molecular target: Rpn1 (non-ATPase, ubiquitin-binding subunit of the human 26S proteasome) (human, UniProt Q13200 1-908)
[4] = molecular target: T1, α7 (CP subunit of the human 26S proteasome) (human, UniProt P25788 2-255)
T1 sequence: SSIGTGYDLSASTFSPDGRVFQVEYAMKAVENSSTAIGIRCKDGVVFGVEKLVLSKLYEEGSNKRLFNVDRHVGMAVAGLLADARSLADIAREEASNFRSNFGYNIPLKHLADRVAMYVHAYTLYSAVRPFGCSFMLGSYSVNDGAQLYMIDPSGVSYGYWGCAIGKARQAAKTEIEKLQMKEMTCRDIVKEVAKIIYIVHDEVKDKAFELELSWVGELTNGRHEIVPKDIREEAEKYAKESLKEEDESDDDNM

Chain of Rpt5 (ATPase subunit of the human 26S proteasome) (P17980 whole entry): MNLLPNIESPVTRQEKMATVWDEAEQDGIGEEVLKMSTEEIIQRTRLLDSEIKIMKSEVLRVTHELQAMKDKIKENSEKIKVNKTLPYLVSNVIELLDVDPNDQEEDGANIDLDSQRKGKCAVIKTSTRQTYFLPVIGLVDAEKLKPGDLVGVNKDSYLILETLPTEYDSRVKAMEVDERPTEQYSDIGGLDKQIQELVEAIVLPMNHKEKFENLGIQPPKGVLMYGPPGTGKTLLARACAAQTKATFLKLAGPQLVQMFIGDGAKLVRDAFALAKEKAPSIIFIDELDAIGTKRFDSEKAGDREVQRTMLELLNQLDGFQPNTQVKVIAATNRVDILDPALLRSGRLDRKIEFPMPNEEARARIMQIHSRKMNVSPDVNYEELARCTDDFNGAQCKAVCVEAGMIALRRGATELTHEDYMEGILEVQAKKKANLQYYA
Chain of Rpn1 (non-ATPase, ubiquitin-binding subunit of the human 26S proteasome) (Q13200 whole entry): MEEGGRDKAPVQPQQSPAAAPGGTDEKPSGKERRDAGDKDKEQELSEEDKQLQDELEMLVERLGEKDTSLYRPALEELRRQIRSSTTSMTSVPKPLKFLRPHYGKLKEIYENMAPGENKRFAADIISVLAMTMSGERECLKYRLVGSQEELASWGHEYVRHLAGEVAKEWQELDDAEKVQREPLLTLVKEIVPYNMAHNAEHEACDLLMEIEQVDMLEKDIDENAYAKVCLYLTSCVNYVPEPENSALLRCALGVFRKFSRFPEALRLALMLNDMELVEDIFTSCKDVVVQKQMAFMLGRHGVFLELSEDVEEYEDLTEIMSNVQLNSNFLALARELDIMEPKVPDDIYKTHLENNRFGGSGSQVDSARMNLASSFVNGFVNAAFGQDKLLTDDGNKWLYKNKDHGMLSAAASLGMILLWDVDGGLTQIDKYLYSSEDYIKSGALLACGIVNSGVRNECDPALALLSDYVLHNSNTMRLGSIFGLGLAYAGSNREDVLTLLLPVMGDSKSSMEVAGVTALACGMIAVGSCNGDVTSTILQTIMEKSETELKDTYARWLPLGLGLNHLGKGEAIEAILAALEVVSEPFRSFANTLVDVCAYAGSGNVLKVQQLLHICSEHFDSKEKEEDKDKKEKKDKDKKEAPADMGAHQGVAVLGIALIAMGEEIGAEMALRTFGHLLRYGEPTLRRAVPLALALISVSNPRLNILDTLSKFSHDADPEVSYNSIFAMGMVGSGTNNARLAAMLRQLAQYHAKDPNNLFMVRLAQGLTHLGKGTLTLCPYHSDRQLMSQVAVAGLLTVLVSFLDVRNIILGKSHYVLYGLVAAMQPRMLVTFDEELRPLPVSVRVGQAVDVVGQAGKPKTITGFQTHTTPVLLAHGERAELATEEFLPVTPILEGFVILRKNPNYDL
Chain of Rpt1 (ATPase subunit of the human 26S proteasome) (P35998 whole entry): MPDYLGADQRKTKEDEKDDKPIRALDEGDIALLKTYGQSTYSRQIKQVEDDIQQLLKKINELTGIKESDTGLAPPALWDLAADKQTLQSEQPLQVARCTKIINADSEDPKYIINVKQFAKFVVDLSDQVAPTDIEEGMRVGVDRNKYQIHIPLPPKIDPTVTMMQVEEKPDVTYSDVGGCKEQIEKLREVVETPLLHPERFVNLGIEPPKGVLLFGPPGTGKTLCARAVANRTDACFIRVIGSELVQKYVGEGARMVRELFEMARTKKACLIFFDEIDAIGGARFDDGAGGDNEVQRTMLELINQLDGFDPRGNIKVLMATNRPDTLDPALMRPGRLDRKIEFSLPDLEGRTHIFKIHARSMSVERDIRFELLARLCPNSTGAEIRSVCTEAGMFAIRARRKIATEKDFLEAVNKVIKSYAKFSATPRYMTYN

binding result [1]: binds | binding result [2]: binds | binding result [3]: binds | binding result [4]: binds
B1: ZFAND5 (recombinant mouse ZFAND5, wild type) (natural protein, UniProt O88878 1-213, looked up)
chain: MAQETNQTPGPMLCSTGCGFYGNPRTNGMCSVCYKEHLQRQQNSGRMSPMGTASGSNSPTSDSASVQRADAGLNNCEGAAGSTSEKSRNVPVAALPVTQQMTEMSISREDKITTPKTEVSEPVVTQPSPSVSQPSSSQSEEKAPELPKPKKNRCFMCRKKVGLTGFDCRCGNLFCGLHRYSDKHNCPYDYKAEAAAKIRKENPVVVAEKIQRI
